Test results published in article PMC8809517, “Cofactor-independent RNA editing by a synthetic S-type PPR protein”.

T1: GFP-9S library array, motif 4 ND N98L;D124P (synthetic construct, N98L;D124P)
T1 chain: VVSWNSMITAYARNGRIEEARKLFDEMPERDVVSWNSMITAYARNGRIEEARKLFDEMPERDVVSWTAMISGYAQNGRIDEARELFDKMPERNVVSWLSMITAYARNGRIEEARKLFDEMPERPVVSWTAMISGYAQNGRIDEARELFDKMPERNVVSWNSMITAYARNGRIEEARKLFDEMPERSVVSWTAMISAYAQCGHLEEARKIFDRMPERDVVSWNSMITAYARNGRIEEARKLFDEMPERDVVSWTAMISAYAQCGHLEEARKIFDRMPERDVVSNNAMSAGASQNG

T2: GFP-9S library array, motif 4 ND N98G;D124Q (synthetic construct, N98G;D124Q)
T2 chain: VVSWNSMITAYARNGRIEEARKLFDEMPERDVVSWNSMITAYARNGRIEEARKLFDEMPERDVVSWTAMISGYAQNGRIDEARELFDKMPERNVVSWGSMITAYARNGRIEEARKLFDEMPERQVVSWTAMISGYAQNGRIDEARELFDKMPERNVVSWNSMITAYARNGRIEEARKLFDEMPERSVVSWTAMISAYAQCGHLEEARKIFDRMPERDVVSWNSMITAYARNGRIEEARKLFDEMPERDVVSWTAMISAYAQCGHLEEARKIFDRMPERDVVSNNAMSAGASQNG

T3: GFP-9S library array, motif 4 ND N98K;D124K (synthetic construct, N98K;D124K)
T3 chain: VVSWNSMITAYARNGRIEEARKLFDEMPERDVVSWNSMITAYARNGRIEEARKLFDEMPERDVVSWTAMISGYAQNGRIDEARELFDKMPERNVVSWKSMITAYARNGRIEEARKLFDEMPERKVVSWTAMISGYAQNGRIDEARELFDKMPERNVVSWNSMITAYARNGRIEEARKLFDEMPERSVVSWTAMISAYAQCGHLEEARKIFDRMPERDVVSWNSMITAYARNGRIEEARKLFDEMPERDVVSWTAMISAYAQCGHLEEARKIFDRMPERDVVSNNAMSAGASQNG

T4: GFP-9S library array, motif 4 ND N98F;D124K (synthetic construct, N98F;D124K)
T4 chain: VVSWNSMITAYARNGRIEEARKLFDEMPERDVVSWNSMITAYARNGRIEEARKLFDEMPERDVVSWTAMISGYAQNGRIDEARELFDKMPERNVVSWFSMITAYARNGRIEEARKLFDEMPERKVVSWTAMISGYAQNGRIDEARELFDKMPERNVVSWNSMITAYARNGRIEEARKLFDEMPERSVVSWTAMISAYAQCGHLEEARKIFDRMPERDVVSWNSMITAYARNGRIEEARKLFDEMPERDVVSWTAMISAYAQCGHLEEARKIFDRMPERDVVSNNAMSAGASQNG

T5: GFP-9S library array, motif 4 ND N98D;D124T (synthetic construct, N98D;D124T)
T5 chain: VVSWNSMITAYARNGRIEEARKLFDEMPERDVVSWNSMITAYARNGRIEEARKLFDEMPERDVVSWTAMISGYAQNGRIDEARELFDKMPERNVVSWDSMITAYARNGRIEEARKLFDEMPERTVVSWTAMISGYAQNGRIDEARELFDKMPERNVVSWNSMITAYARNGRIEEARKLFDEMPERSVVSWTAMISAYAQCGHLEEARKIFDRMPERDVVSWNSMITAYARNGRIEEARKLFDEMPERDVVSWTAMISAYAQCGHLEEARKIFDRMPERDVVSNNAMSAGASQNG


Columns and labels:
Experiment in all cases: high-throughput RNA pulldown from lysate on Ni-NTA beads; HRP: 50 mM Tris pH 8, 150 mM NaCl, 1 mM beta-mercaptoethanol, 50 ug/ml BSA, 3 ug/ml yeast RNA, 0.5% heparin; ITC and FP: Tris pH 8, 200 mM KCl, 5% glycerol; MST: 50 mM Tris pH 8, 200 mM NaCl, 1 mM DTT, BSA, heparin, 0.05% Tween 20
Settings in all cases: tags: N-terminal His-eGFP
[1] = target: T1, GFP-9S library array, motif 4 ND …
[2] = target: T2, GFP-9S library array, motif 4 ND …
[3] = target: T3, GFP-9S library array, motif 4 ND …
[4] = target: T4, GFP-9S library array, motif 4 ND …
[5] = target: T5, GFP-9S library array, motif 4 ND …

Row | Binder | Kd ([1]; label: 5' Cy5) [nM] | Kd ([2]; label: 5' Cy5) [nM] | Kd ([3]; label: 5' Cy5) [nM] | Kd ([4]; label: 5' Cy5) [nM] | Kd ([5]; label: 5' Cy5) [nM] | Kd ([1]; label: 5' IRDye 800CW) [nM] | Kd ([2]; label: 5' IRDye 800CW) [nM] | Kd ([3]; label: 5' IRDye 800CW) [nM] | Kd ([4]; label: 5' IRDye 800CW) [nM] | Kd ([5]; label: 5' IRDye 800CW) [nM]
1 | AUUACACGUGA (ssRNA) [Cy5-rpoA] | 97.7 | 96.6 | 102 | 160 | 123 |  |  |  |  | 
2 | AUUAUACGUGA (ssRNA) [IR-rpoA-U] |  |  |  |  |  | 145 | 142 | 83.8 | 667 | 301
3 | AUUAAACGUGA (ssRNA) [IR-rpoA-A] |  |  |  |  |  | 213 | 150 | 254 | 121 | 320
4 | AUUAGACGUGA (ssRNA) [Cy5-rpoA-G] | 114 | 109 | 119 | 63.6 | 106 |  |  |  |  | 
